Our source for the abundance fitness values is the Human Domainome abundance scans (Beltran et al. 2025).

± gives the uncertainty stated by the source.

To fix the notation:
B1: Metastasis-associated protein MTA3, residues 265 to 317; numbered along this chain, Q9BTC8 (parent)
chain: RDEMEEWSASEASLFEEALEKYGKDFNDIRQDFLPWKSLTSIIEYYYMWKTTD

In the data set the parent is B1. In words: abundance fitness (aPCA) (normalised: wild type 0, dead -1); higher = more abundant; growth selection in yeast, the domain comes from the species named. To be noted: Homo sapiens.
Regarding RDEMEEFSASEASLFEEALEKYGKDFNDIRQDFLPWKSLTSIIEYYYMWKTTD, the abundance fitness is -0.681 ± 0.26.
Consider RDEMEEKSASEASLFEEALEKYGKDFNDIRQDFLPWKSLTSIIEYYYMWKTTD, for which the abundance fitness was -0.549 ± 0.17.
With RDEMEEASASEASLFEEALEKYGKDFNDIRQDFLPWKSLTSIIEYYYMWKTTD, the abundance fitness is -0.51 ± 0.12.
Under RDEMEEGSASEASLFEEALEKYGKDFNDIRQDFLPWKSLTSIIEYYYMWKTTD stands -0.427 ± 0.16; under RDEMEENSASEASLFEEALEKYGKDFNDIRQDFLPWKSLTSIIEYYYMWKTTD, -0.697 ± 0.18; under RDEMEELSASEASLFEEALEKYGKDFNDIRQDFLPWKSLTSIIEYYYMWKTTD, -0.71 ± 0.099.
To RDEMEEHSASEASLFEEALEKYGKDFNDIRQDFLPWKSLTSIIEYYYMWKTTD belongs -0.909 ± 0.14; to RDEMEEQSASEASLFEEALEKYGKDFNDIRQDFLPWKSLTSIIEYYYMWKTTD, -1.03 ± 0.25; to RDEMEEVSASEASLFEEALEKYGKDFNDIRQDFLPWKSLTSIIEYYYMWKTTD, -0.979 ± 0.14.
Under RDEMEEYSASEASLFEEALEKYGKDFNDIRQDFLPWKSLTSIIEYYYMWKTTD stands -0.496 ± 0.19; under RDEMEEDSASEASLFEEALEKYGKDFNDIRQDFLPWKSLTSIIEYYYMWKTTD, -0.814 ± 0.28; under RDEMEEESASEASLFEEALEKYGKDFNDIRQDFLPWKSLTSIIEYYYMWKTTD, -0.925 ± 0.33.
Consider RDEMEEMSASEASLFEEALEKYGKDFNDIRQDFLPWKSLTSIIEYYYMWKTTD, for which the abundance fitness was -1 ± 0.36.
Under RDEMEERSASEASLFEEALEKYGKDFNDIRQDFLPWKSLTSIIEYYYMWKTTD stands -0.715 ± 0.15; under RDEMEESSASEASLFEEALEKYGKDFNDIRQDFLPWKSLTSIIEYYYMWKTTD, -0.777 ± 0.11; under RDEMEECSASEASLFEEALEKYGKDFNDIRQDFLPWKSLTSIIEYYYMWKTTD, -0.952 ± 0.13.
To RDEMEETSASEASLFEEALEKYGKDFNDIRQDFLPWKSLTSIIEYYYMWKTTD belongs -0.884 ± 0.15; to RDEMEEWSWSEASLFEEALEKYGKDFNDIRQDFLPWKSLTSIIEYYYMWKTTD, -0.527 ± 0.14.
Under RDEMEEWSMSEASLFEEALEKYGKDFNDIRQDFLPWKSLTSIIEYYYMWKTTD stands -0.909 ± 0.25; under RDEMEEWSCSEASLFEEALEKYGKDFNDIRQDFLPWKSLTSIIEYYYMWKTTD, -0.564 ± 0.1; under RDEMEEWSRSEASLFEEALEKYGKDFNDIRQDFLPWKSLTSIIEYYYMWKTTD, -0.356 ± 0.072.
As to RDEMEEWSTSEASLFEEALEKYGKDFNDIRQDFLPWKSLTSIIEYYYMWKTTD, the abundance fitness was -0.332 ± 0.09.
Under RDEMEEWSESEASLFEEALEKYGKDFNDIRQDFLPWKSLTSIIEYYYMWKTTD stands -0.042 ± 0.12.
To RDEMEEWSISEASLFEEALEKYGKDFNDIRQDFLPWKSLTSIIEYYYMWKTTD belongs -0.335 ± 0.2; to RDEMEEWSYSEASLFEEALEKYGKDFNDIRQDFLPWKSLTSIIEYYYMWKTTD, -0.916 ± 0.17; to RDEMEEWSKSEASLFEEALEKYGKDFNDIRQDFLPWKSLTSIIEYYYMWKTTD, -0.505 ± 0.097.
To RDEMEEWSSSEASLFEEALEKYGKDFNDIRQDFLPWKSLTSIIEYYYMWKTTD belongs -0.331 ± 0.078.
Turning to RDEMEEWSVSEASLFEEALEKYGKDFNDIRQDFLPWKSLTSIIEYYYMWKTTD, the abundance fitness is -0.359 ± 0.086.
For the variant RDEMEEWSGSEASLFEEALEKYGKDFNDIRQDFLPWKSLTSIIEYYYMWKTTD, the abundance fitness is -0.714 ± 0.19.
Under RDEMEEWSPSEASLFEEALEKYGKDFNDIRQDFLPWKSLTSIIEYYYMWKTTD stands -0.29 ± 0.085; under RDEMEEWSFSEASLFEEALEKYGKDFNDIRQDFLPWKSLTSIIEYYYMWKTTD, -0.726 ± 0.26.
With RDEMEEWSLSEASLFEEALEKYGKDFNDIRQDFLPWKSLTSIIEYYYMWKTTD, the abundance fitness is -0.5 ± 0.11.
To RDEMEEWSNSEASLFEEALEKYGKDFNDIRQDFLPWKSLTSIIEYYYMWKTTD belongs -0.677 ± 0.16.
Under RDEMEEWCASEASLFEEALEKYGKDFNDIRQDFLPWKSLTSIIEYYYMWKTTD stands -0.9 ± 0.18; under RDEMEEWFASEASLFEEALEKYGKDFNDIRQDFLPWKSLTSIIEYYYMWKTTD, -0.935 ± 0.23.
Under RDEMEEWIASEASLFEEALEKYGKDFNDIRQDFLPWKSLTSIIEYYYMWKTTD stands -0.518 ± 0.17; under RDEMEEWPASEASLFEEALEKYGKDFNDIRQDFLPWKSLTSIIEYYYMWKTTD, -0.884 ± 0.14.
For the variant RDEMEEWQASEASLFEEALEKYGKDFNDIRQDFLPWKSLTSIIEYYYMWKTTD, the abundance fitness was -0.749 ± 0.28.
Regarding RDEMEEWTASEASLFEEALEKYGKDFNDIRQDFLPWKSLTSIIEYYYMWKTTD, the abundance fitness worked out at 0.018 ± 0.1.
As to RDEMEEWKASEASLFEEALEKYGKDFNDIRQDFLPWKSLTSIIEYYYMWKTTD, the abundance fitness is -0.696 ± 0.18.
Under RDEMEEWHASEASLFEEALEKYGKDFNDIRQDFLPWKSLTSIIEYYYMWKTTD stands -0.696 ± 0.13; under RDEMEEWWASEASLFEEALEKYGKDFNDIRQDFLPWKSLTSIIEYYYMWKTTD, -0.303 ± 0.16.
On to RDEMEEWGASEASLFEEALEKYGKDFNDIRQDFLPWKSLTSIIEYYYMWKTTD, for which the abundance fitness was -0.571 ± 0.12.
On to RDEMEEWDASEASLFEEALEKYGKDFNDIRQDFLPWKSLTSIIEYYYMWKTTD, for which the abundance fitness is -0.587 ± 0.12.
To RDEMEEWYASEASLFEEALEKYGKDFNDIRQDFLPWKSLTSIIEYYYMWKTTD belongs 0.086 ± 0.14; to RDEMEEWLASEASLFEEALEKYGKDFNDIRQDFLPWKSLTSIIEYYYMWKTTD, -0.889 ± 0.12.
RDEMEEWVASEASLFEEALEKYGKDFNDIRQDFLPWKSLTSIIEYYYMWKTTD: the abundance fitness is -0.949 ± 0.15.
Under RDEMEEWRASEASLFEEALEKYGKDFNDIRQDFLPWKSLTSIIEYYYMWKTTD stands -0.93 ± 0.12; under RDEMEEWAASEASLFEEALEKYGKDFNDIRQDFLPWKSLTSIIEYYYMWKTTD, -0.715 ± 0.18.
